What was measured:
[1] = molecular target: biotinylated human D-SDF-1 (Homo sapiens) (UniProt P48061); test: pulldown; details: single Kd stated after naming 193-C2-002 and 193-G2-012
[2] = molecular target: human SDF-1alpha (CXCL12) (Homo sapiens) (UniProt P48061); test: SPR; details: L-RNA; 5'-40 kDa PEG; Biacore 2000, 37 C
human SDF-1alpha (CXCL12) (Homo sapiens), sequence (P48061 22-89): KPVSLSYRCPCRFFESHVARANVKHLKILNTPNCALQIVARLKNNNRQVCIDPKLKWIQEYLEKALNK

biotinylated human D-SDF-1 (Homo sapiens), sequence (P48061 22-92): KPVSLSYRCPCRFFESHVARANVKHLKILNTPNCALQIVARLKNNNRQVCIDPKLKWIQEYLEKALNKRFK

| Sequence | Kd [1] | Kd [2] |
| --- | --- | --- |
| GCGUGGUGUGAUCUAGAUGUAGUGGCUGAUCCUAGUCAGGUACGC [193-C2-002 (D)] | 0.3 nM | – |
| GCGUGGUGUGAUCUAGAUGUAUUGGCUGAUCCUAGUCAGGUACGC [NOX-A12 (193-G2-012-5'-PEG)] | – | 0.2 nM |
